Laboratory results taken from patent publication US20240118200A1.

Assays:
[1] = molecular target: glycoproteins on HeLa cells; test: SPR imaging on fixed HeLa cells on gold, 50 µg/ml WGA, average of 10 cells, first order kinetic fit
[2] = molecular target: glycoproteins on HeLa cells; test: CAR imaging on fixed HeLa cells on glass, 50 µg/ml WGA, average over cells, first order kinetic fit

Kd [1]: 53 nM
koff [1]: 0.00013 s⁻¹
kon [1]: 2500 M⁻¹ s⁻¹
Kd [2]: 42 nM
koff [2]: 0.00026 s⁻¹
kon [2]: 6000 M⁻¹ s⁻¹
B1: wheat germ agglutinin (WGA) with Alexa Fluor 488 tag (protein, UniProt P10968 27-197, looked up)
chain: QRCGEQGSNMECPNNLCCSQYGYCGMGGDYCGKGCQNGACWTSKRCGSQAGGATCTNNQCCSQYGYCGFGAEYCGAGCQGGPCRADIKCGSQAGGKLCPNNLCCSQWGFCGLGSEFCGGGCQSGACSTDKPCGKDAGGRVCTNNYCCSKWGSCGIGPGYCGAGCQSGGCDG
modifications: Alexa Fluor 488 label, site not stated
